The numbers were not newly measured in article PMC6983177, which cites them from elsewhere.

In general, Kd refers to the constant that tells how readily two partners part at equilibrium.

In data set [1] the target is RNA polymerase II CTD phosphopeptide (Homo sapiens) (UniProt P24928). Nature of the data set: isothermal titration calorimetry. For orientation: Isothermal titration calorimetry measures the heat released or taken up as one component is titrated into another.
The target of a further data set is pCDC25c (Homo sapiens) (UniProt P30307).
UniProt P30307, sequence (P30307 2-473): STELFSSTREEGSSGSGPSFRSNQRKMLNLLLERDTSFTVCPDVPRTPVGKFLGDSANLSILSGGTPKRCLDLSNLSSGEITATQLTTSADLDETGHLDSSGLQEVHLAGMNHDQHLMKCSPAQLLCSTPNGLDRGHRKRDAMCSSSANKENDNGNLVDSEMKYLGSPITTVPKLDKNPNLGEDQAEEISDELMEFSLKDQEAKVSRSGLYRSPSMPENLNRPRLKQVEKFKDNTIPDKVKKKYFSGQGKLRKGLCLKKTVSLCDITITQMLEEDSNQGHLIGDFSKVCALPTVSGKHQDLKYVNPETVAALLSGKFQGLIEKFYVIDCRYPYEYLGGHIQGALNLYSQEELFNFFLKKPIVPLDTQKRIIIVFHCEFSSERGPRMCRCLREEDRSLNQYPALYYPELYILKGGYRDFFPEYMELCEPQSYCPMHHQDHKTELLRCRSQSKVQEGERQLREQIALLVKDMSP

Consider Pin1 WW (from UniProt Q13526), for which the dissociation constant Kd in data set [1] was 35 µM; with pCDC25c (Homo sapiens) it was 8 µM.
